Test results as given in patent US20050079156A1, “Method of treating endometreosis” (priority 2001, published 2005).

Assays:
Type in all cases: cell-based
[1] = test system: human adipocytes; assay: Estradiol production in cultured human adipocytes (estradiol in conditioned media); settings: for estradiol production (effect of cytokine alone): human adipocytes, different doses of IL-1α and IL-1β; for estradiol production stimulated by a mixture of 6 cytokines: mix of IL-1b, TNF-α, IL-6, IL-8, IL-11, oncostatin M 0.01 ug/ml each, IFN-α 1 ug/ml, IFN-b 2 ug/ml, FIG. 4
Protocol: Human subcutaneous cultured adipocytes, catalog nos. SP-1012, SP-1024, SP-1096, SP-75, or SP-25 were purchased from Zen-Bio, Inc. (Research Triangle Park, N.C.) and cultured according to the manufacturer's instructions.
Human adipocytes (approximately 100,000 cells/well) were cultured for 24 hr in the presence or absence of different doses of IL-1α and IL-1β (as indicated) with and without IFN-γ (0.1 ug/ml, IL-1α, IL-1β and IFN-γ were purchased from R&D). The amount of estradiol release in the conditioned media was determined by radioimmunoassay for estradiol using the Active™ Estradiol EIA kit according to the manufacturer's instructions (catalog no. DSL-10-4300, Diagnostic Systems Laboratories, Inc., Webster, Tex.). Each value represents the mean±S.E.M. of triplicate wells.
Human adipocytes (100,000 cells/well) were cultured for 72 hr with and without increasing doses of IFN-γ (0.0001 to 1 ug/ml, purchased from R&D). The amount of estradiol in the conditioned media was determined by radioimmunoassay as described in Example 1. Each value represents the mean±S.E.M. of triplicate wells.
Human adipocytes (100,000 cells/well) were cultured for 72 hr in the presence or absence of different doses of the mix Cytokines (IL-1b, TNF-α, IL-6, IL-8, IL-11 and oncostatin M, 0.01 ug/ml/each—dilution as indicated) with and without IFN-γ (0.1 ug/ml), […] (1 ug/ml) or IFN-b (2 ug/ml). IFN-α was purchased from PBL while IFN-b was obtained from Serono. The amount of estradiol release in the conditioned media was determined by radioimmunoassay as described in Example 1. Each value represents the mean±S.E.M. of triplicate wells.
(§1) Human adipocytes (100,000 cells/well) obtained from Zen-Bio,Inc were cultured for 48 hr in the presence or absence of different doses of the cytokine mix (dilution as indicated) with and without IFN-γ (0.1 ug/ml). The amount of estradiol release in the conditioned media was determined by radioimmunoassay as described in Example 1. Each value represents the mean±S.E.M. of triplicate wells.
as §1, with “Zen-Bio, Inc” for “Zen-Bio,Inc”, “72” for “48”, “LPS (as” for “the cytokine mix (dilution as”, “ug/ml, LPS were purchased from Sigma).” for “ug/ml).”
as §1, with “Zen-Bio, Inc” for “Zen-Bio,Inc”, “the” for “the cytokine”, “mix LPS, PMA and PGE2” for “mix”, “ug/ml). IFN-γ was added at the same as the mix, 8 hr or 24 hr after the mix of the LPS, PMA and PGE2 which were purchased from Sigma.” for “ug/ml).”

[2] = test system: aromatase mRNA; assay: Aromatase mRNA expression in human adipocytes by RT-PCR; settings: for aromatase mRNA expression (induction by cytokine alone): cytokine 0.1 ug/ml
Protocol: Adipocyte cultures were treated with IL-1-β, IFN-γ, TNF-α, and combinations of IL-1-β, and IFN-γ and TNF-α and IFN-γ. Subsequently, total RNA from cultured adipocytes was isolated using conventional methods. The reverse transcriptase polymerase chain reaction (RT-PCR) was performed using aromatase specific primers. The amplified aromatase cDNA fragments produced by RT-PCR were separated on an agarose gel. As shown in the FIG. 3, IL-1 and TNF alone induce transcription of aromatase mRNA compared to untreated control. However, the administration of IFN-γ inhibits the transcription of aromatase mRNA when given together IL-1 or TNF.
Human adipocytes (from one flask with 100% confluence) obtained from Zen-Bio,Inc were cultured for 72 hr in the presence or absence of 0.1 ug/ml of different Cytokines as indicated with and without IFN-γ (0.1 ug/ml, all Cytokines were purchased from R&D except FAS ligand, TRAIL and OX40 Ligands were obtained from Alexis). Total RNA was extracted for RT-PCR (30 cycles with 50 ng RNA/each sample) using human aromatase and GAPDH specific oligos (20 mers).

[3] = test system: human preadipocytes; assay: Cytokine stimulation of estradiol production in human preadipocytes; settings: 72 hr, FIG. 9
Protocol: […] The amount of estradiol release in the conditioned media was determined by radioimmunoassay for estradiol using the Active™ Estradiol EIA kit according to the manufacturer's instructions (catalog no. DSL-10-4300, Diagnostic Systems Laboratories, Inc., Webster, Tex.). Each value represents the mean±S.E.M. of triplicate wells. Similar results were reproducible in 10 additional experiments using cells derived from either male or female patients.

IL-1β: interleukin-1 beta, cytokine purchased from R&D
estradiol production (effect of cytokine alone) ([1]; 24 hr, FIG. 1): significantly increased estradiol production
transcription of aromatase mRNA (cytokine alone compared to untreated control) ([2]; adipocyte cultures, FIG. 3): induce
aromatase mRNA expression (induction by cytokine alone) ([2]; 72 hr, FIG. 8): induce

IFN-α
estradiol production stimulated by a mixture of 6 cytokines ([1]; 72 hr, IFN-γ 0.1 ug/ml): do not inhibit

IL-6: interleukin-6, cytokine
aromatase mRNA expression (induction by cytokine alone) ([2]; 72 hr, FIG. 8): induce
estradiol production (stimulation by cytokine) ([3]; cytokine 0.5 ug/ml): stimulate

GH: human growth hormone
estradiol production (stimulation by cytokine) ([3]; cytokine 5 ug/ml): stimulate

IL-8: interleukin-8, cytokine
estradiol production (stimulation by cytokine) ([3]; cytokine 0.5 ug/ml): stimulate

LIF: leukemia inhibitory factor, cytokine
aromatase mRNA expression (induction by cytokine alone) ([2]; 72 hr, FIG. 8): induce

TRAIL: tumor necrosis factor-related apoptosis-inducing ligand, obtained from Alexis
aromatase mRNA expression (induction by cytokine alone) ([2]; 72 hr, FIG. 8): induce

IGF-1: insulin growth factor-1
estradiol production (stimulation by cytokine) ([3]; cytokine 5 ug/ml): stimulate

B1: IL-11: interleukin-11, cytokine (protein, UniProt P20809 22-199, looked up)
Interleukin-11: PGPPPGPPRVSPDPRAELDSTVLLTRSLLADTRQLAAQLRDKFPADGDHNLDSLPTLAMSAGALGALQLPGVLTRLRADLLSYLRHVQWLRRAGGSSLKTLEPELGTLQARLDRLLRRLQLLMSRLALPQPPPDPPAPPLAPPSSAWGGIRAAHAILGGLHLTLDWAVRGLLLLKTRL
aromatase mRNA expression (induction by cytokine alone) ([2]; 72 hr, FIG. 8): induce
estradiol production (stimulation by cytokine) ([3]; cytokine 0.5 ug/ml): stimulate

B2: OX40L: OX40 Ligand, obtained from Alexis (protein, UniProt P23510 1-183, looked up)
Tumor necrosis factor ligand …: MERVQPLEENVGNAARPRFERNKLLLVASVIQGLGLLLCFTYICLHFSALQVSHRYPRIQSIKVQFTEYKKEKGFILTSQKEDEIMKVQNNSVIINCDGFYLISLKGYFSQEVNISLHYQKDEEPLFQLKKVRSVNSLMVASLTYKDKVYLNVTTDNTSLDDFHVNGGELILIHQNPGEFCVL
aromatase mRNA expression (induction by cytokine alone) ([2]; 72 hr, FIG. 8): induce

B3: IFN-γ: interferon-gamma, recombinant human, purchased from R&D (protein, UniProt P01579 24-161, looked up)
Interferon gamma: QDPYVKEAENLKKYFNAGHSDVADNGTLFLGILKNWKEESDRKIMQSQIVSFYFKLFKNFKDDQSIQKSVETIKEDMNVKFFNSNKKKRDDFEKLTNYSVTDLNVQRKAIHELIQVMAELSPAAKTGKRKRSQMLFRG
estradiol production stimulated by a mixture of 15 cytokines ([1]; 15 cytokines 0.01 ug/ml each, 48 hr, IFN-γ 0.1 ug/ml, FIG. 5): inhibited
LPS stimulated estradiol production ([1]; 72 hr, IFN-γ 0.1 ug/ml, FIG. 6): inhibits
IL-1α and IL-1β induced estradiol production ([1]; IFN-γ 0.1 ug/ml, 24 hr, FIG. 1): inhibits
constitutive estradiol production ([1]; IFN-γ 0.0001 to 1 ug/ml, 72 hr, FIG. 2): dose-dependent inhibitory effect
PMA, LPS and PGE2 stimulated estradiol production ([1]; mix PMA 5 ng/ml, LPS 10 ug/ml, PGE2 10 ug/ml, 48 hr, IFN-γ 0.1 ug/ml added at same time, 8 hr or 24 hr after the mix, FIG. 7): inhibits
estradiol production stimulated by a mixture of 6 cytokines ([1]; 72 hr, IFN-γ 0.1 ug/ml): inhibits
constitutive aromatase mRNA ([2]; adipocyte cultures, Example 3): Inhibited
transcription of aromatase mRNA when given together IL-1 or TNF ([2]; adipocyte cultures, FIG. 3): inhibits
induced expression of aromatase mRNA by TRAIL, OX40, IL-1β, IL-6, IL-11 and LIF ([2]; cytokines 0.1 ug/ml, IFN-γ 0.1 ug/ml, 72 hr, FIG. 8): inhibits

B4: IL-1α: interleukin-1-alpha, cytokine purchased from R&D (protein, UniProt P01583 113-271, looked up)
Interleukin-1 alpha: SAPFSFLSNVKYNFMRIIKYEFILNDALNQSIIRANDQYLTAAALHNLDEAVKFDMGAYKSSKDDAKITVILRISKTQLYVTAQDEDQPVLLKEMPEIPKTITGSETNLLFFWETHGTKNYFTSVAHPNLFIATKQDYWVCLAGGPPSITDFQILENQA
estradiol production (effect of cytokine alone) ([1]; 24 hr, FIG. 1): significantly increased estradiol production

B5: OSM: oncostatin M, cytokine (protein, UniProt P13725 26-221, looked up)
Oncostatin-M: AAIGSCSKEYRVLLGQLQKQTDLMQDTSRLLDPYIRIQGLDVPKLREHCRERPGAFPSEETLRGLGRRGFLQTLNATLGCVLHRLADLEQRLPKAQDLERSGLNIEDLEKLQMARPNILGLRNNIYCMAQLLDNSDTAEPTKAGRGASQPPTPTPASDAFQRKLEGCRFLHGYHRFMHSVGRVFSKWGESPNRSRR
estradiol production (stimulation by cytokine) ([3]; cytokine 0.5 ug/ml): stimulate
